Article PMC7617869, “Molecular glues that inhibit deubiquitylase activity and inflammatory signaling” (Nature Structural & Molecular Biology, 2025)
Values joined by “and” are separate entries in the source; they are usually repeats but may differ in a detail not shown here. Equal values may be shown once.

How the values were obtained:
Assay type in all cases: biochemical
[1] = target: T1, BRISC (Homo sapiens, UniProt P46736+Q15018+Q9NXR7); experiment: BRISC DUB activity assay (IQF K63-linked diubiquitin); settings: BRISC WT
T1 construct: made in house; host or cells: Spodoptera frugiperda (Sf9) insect cells, MultiBac
Method: (§1) IQF assays were performed in DUB reaction buffer containing 50 mM HEPES–NaOH pH 7.0, 100 mM NaCl, 0.1 mg ml^−1 BSA, 1 mM DTT and 0.03% v/v Brij-35. […] The final concentration of BRISC WT, all BRISC mutants, HsBRISCΔLoop, MmBRISC and DrBRISCΔNΔC was 1 nM. Other enzymes were tested at the following concentrations: 5 nM ARISC (FL), 10 nM CfBRISCΔNΔC, 250 nM AMSH* (ref. [43]), 500 nM USP2 and 1 μM trypsin (Sigma, 9002-07-7). For Michaelis–Menten experiments, 1 nM BRISC with 0–1 μM IQF K63-linked diubiquitin substrate was used. Michaelis–Menten analyses and Lineweaver–Burk plots were calculated using GraphPad Prism (version 9.0).
(§2) To assess enzymatic activity, BRISC complexes were diluted to concentrations between 1 nM and 50 nM. […] Then, 20-μl enzyme reactions were carried out in 384-well black flat-bottom low-flange plates (Corning, 35373). DUB activity was measured using IQF K63-linked diubiquitin (LifeSensors, DU6303) at 50 nM. Cleaved diubiquitin was monitored by measuring fluorescence intensity (excitation, 544 nm; emission, 575 nm; dichroic mirror, 560 nm). Fluorescence intensity was measured every minute for 30 min at 30 °C. Fluorescence intensity units were plotted against time to generate a linear reaction progress curve, where the initial velocity (V0) corresponds to the gradient of the curve (typically achieved within 15 min). IC50 values were calculated using the GraphPad Prism (version 9.0) built-in dose–response equation for inhibitor concentration versus response (variable slope).

[2] = target: BRISC Abraxas2 T140A (Homo sapiens, UniProt P46736+Q15018+Q9NXR7, T140A); experiment: BRISC mutant IQF assay: Abraxas2 T140A; settings: for Normalised V0: Abraxas2 T140A
Method: as §1, §2

[3] = target: BRISC BRCC45 D248R (Homo sapiens, UniProt P46736+Q15018+Q9NXR7, D248R); experiment: BRISC mutant IQF assay: BRCC45 D248R
Method: as §1, §2

[4] = target: BRISC BRCC45 F140A (Homo sapiens, UniProt P46736+Q15018+Q9NXR7, F140A); experiment: BRISC mutant IQF assay: BRCC45 F140A
Method: as §1, §2

[5] = target: BRISC BRCC45 C245A (Homo sapiens, UniProt P46736+Q15018+Q9NXR7, C245A); experiment: BRISC mutant IQF assay: BRCC45 C245A
Method: as §1, §2

[6] = target: BRISC BRCC45 R137A (Homo sapiens, UniProt P46736+Q15018+Q9NXR7, R137A); experiment: BRISC mutant IQF assay: BRCC45 R137A
Method: as §1, §2

[7] = target: BRISC BRCC36 L169A (Homo sapiens, UniProt P46736+Q15018+Q9NXR7, L169A); experiment: BRISC mutant IQF assay: BRCC36 L169A
Method: as §1, §2

[8] = target: BRISC BRCC36 W130A (Homo sapiens, UniProt P46736+Q15018+Q9NXR7, W130A); experiment: BRISC mutant IQF assay: BRCC36 W130A
Method: as §1, §2

B1: SHMT2: serine hydroxymethyltransferase 2, metabolic enzyme and endogenous inhibitor of BRISC DUB activity (protein)
chain: QLVRMAIRAQHSNAAQTQTGEANRGWTGQESLSDSDPEMWELLQREKDRQCRGLELIASENFCSRAALEALGSCLNNKYSEGYPGKRYYGGAEVVDEIELLCQRRALEAFDLDPAQWGVNVQPYSGSPANLAVYTALLQPHDRIMGLDLPDGGHLTHGYMSDVKRISATSIFFESMPYKLNPKTGLIDYNQLALTARLFRPRLIIAGTSAYARLIDYARMREVCDEVKAHLLADMAHISGLVAAKVIPSPFKHADIVTTTTHKTLRGTRSGLIFYRKGVKAVDPKTGREIPYTFEDRINFAVFPSLQGGPHNHAIAAVAVALKQACTPMFREYSLQVLKNARAMADALLERGYSLVSGGTDNHLVLVDLRPKGLDGARAERVLELVSITANKNTCPGDRSAITPGGLRLGAPALTSRQFREDDFRRVVDFIDEGVNIGLEVKSKTAKLQDFKSFLLKDSETSQRLANLRQRVEQFARAFPMPGFDEH
Normalised V0 ([1]; SHMT2 0.00347222 nM): 0.9504 and 1.044 and 0.9816 | Normalised V0 ([1]; SHMT2 0.0347222 nM): 0.8685 and 1.128 and 1.002 | Normalised V0 ([1]; SHMT2 0.347222 nM): 0.5106 and 0.9767 and 0.8269 | Normalised V0 ([1]; SHMT2 1.04167 nM): 0.4439 and 0.8387 and 0.81 | SHMT2 inhibition of BRISC mutant ([2]; Abraxas 2 T140A): reduced BRISC inhibition by SHMT2 | Normalised V0 ([2]; SHMT2 0.00347222 nM): 0.9459 and 1.003 and 1.126 | Normalised V0 ([2]; SHMT2 0.0347222 nM): 0.9478 and 0.9048 and 1.065 | Normalised V0 ([2]; SHMT2 0.347222 nM): 1.002 and 0.9158 and 1.209 | Normalised V0 ([2]; SHMT2 1.04167 nM): 0.9422 and 0.8854 and 1.017 | Normalised V0 ([2]; SHMT2 3.125 nM): 0.7382 and 0.7698 and 1.0401 | Normalised V0 ([2]; SHMT2 6.25 nM): 0.8737 and 0.7897 and 1.032 | Normalised V0 ([2]; SHMT2 12.5 nM): 0.7421 and 0.6608 and 0.8191 | Normalised V0 ([2]; SHMT2 25 nM): 0.6241 and 0.5064 and 0.8208 | Normalised V0 ([2]; SHMT2 100 nM): 0.3175 and 0.5076 | Normalised V0 ([2]; SHMT2 200 nM): 0.2755 and 0.2287 and 0.3324 | Normalised V0 ([3]; SHMT2 0.00347222 nM): 0.9357 and 1.056 and 1.018 | Normalised V0 ([3]; SHMT2 0.0347222 nM): 0.8867 and 1.018 and 0.9695 | Normalised V0 ([3]; SHMT2 0.347222 nM): 0.882 and 0.7691 and 0.9453 | Normalised V0 ([3]; SHMT2 1.04167 nM): 0.8534 and 1.006 and 0.8339 | Normalised V0 ([3]; SHMT2 3.125 nM): 0.5795 and 0.5378 and 0.6917 | Normalised V0 ([3]; SHMT2 6.25 nM): 0.5339 and 0.4364 and 0.5979 | Normalised V0 ([3]; SHMT2 12.5 nM): 0.3281 and 0.3163 and 0.4228 | Normalised V0 ([3]; SHMT2 25 nM): 0.3612 and 0.2677 and 0.38 | Normalised V0 ([3]; SHMT2 200 nM): 0.05731 and 0.07178 and 0.09996 | Normalised V0 ([4]; SHMT2 0.00347222 nM): 0.9456 and 0.9686 and 0.8245 | Normalised V0 ([4]; SHMT2 0.0347222 nM): 0.8694 and 1.026 and 0.8239 | Normalised V0 ([4]; SHMT2 0.347222 nM): 0.9307 and 0.9114 and 0.8975 | Normalised V0 ([4]; SHMT2 1.04167 nM): 0.8692 and 0.886 and 0.7736 | Normalised V0 ([4]; SHMT2 3.125 nM): 0.8001 and 0.6891 and 0.7189 | Normalised V0 ([4]; SHMT2 6.25 nM): 0.7321 and 0.6833 and 0.7086 | Normalised V0 ([4]; SHMT2 12.5 nM): 0.4577 and 0.4521 and 0.5184 | Normalised V0 ([4]; SHMT2 25 nM): 0.3014 and 0.3302 and 0.288 | Normalised V0 ([4]; SHMT2 50 nM): 0.2533 and 0.2485 and 0.2535 | Normalised V0 ([4]; SHMT2 100 nM): 0.2137 and 0.184 and 0.161 | Normalised V0 ([5]; SHMT2 0.00347222 nM): 0.9588 and 1.144 and 1.038 | Normalised V0 ([5]; SHMT2 0.0347222 nM): 0.8809 and 1.071 and 0.9852 | Normalised V0 ([5]; SHMT2 0.347222 nM): 0.7622 and 1.011 and 1.053 | Normalised V0 ([5]; SHMT2 1.04167 nM): 0.7409 and 0.9691 and 1.004 | Normalised V0 ([5]; SHMT2 3.125 nM): 0.5581 and 0.7111 and 0.7493 | Normalised V0 ([5]; SHMT2 6.25 nM): 0.4848 and 0.6695 and 0.6719 | Normalised V0 ([5]; SHMT2 12.5 nM): 0.4215 and 0.5643 and 0.477 | Normalised V0 ([5]; SHMT2 25 nM): 0.501 and 0.3965 and 0.329 | Normalised V0 ([5]; SHMT2 50 nM): 0.391 and 0.3153 and 0.2153 | Normalised V0 ([5]; SHMT2 100 nM): 0.3584 and 0.2521 and 0.1837 | Normalised V0 ([5]; SHMT2 200 nM): 0.2257 and 0.1737 and 0.1153 | Normalised V0 ([6]; SHMT2 0.00347222 nM): 1.014 and 1.027 and 1.065 | Normalised V0 ([6]; SHMT2 0.0347222 nM): 1.097 and 0.9804 and 1.087 | Normalised V0 ([6]; SHMT2 0.347222 nM): 0.9721 and 1.019 and 0.9944 | Normalised V0 ([6]; SHMT2 1.04167 nM): 0.7112 and 0.6836 and 0.8504 | Normalised V0 ([6]; SHMT2 3.125 nM): 0.4073 and 0.4138 and 0.6039 | Normalised V0 ([6]; SHMT2 6.25 nM): 0.3218 and 0.2523 and 0.3959 | Normalised V0 ([6]; SHMT2 12.5 nM): 0.1807 and 0.195 and 0.2065 | Normalised V0 ([6]; SHMT2 25 nM): 0.1093 and 0.1844 and 0.1637 | Normalised V0 ([6]; SHMT2 50 nM): 0.06765 and 0.12 and 0.1128 | Normalised V0 ([6]; SHMT2 100 nM): 0.03288 and 0.04915 and 0.05253 | SHMT2 inhibition of BRISC BRCC45 mutants ([6]; b47 speaks of all BRCC45 mutants): without affecting SHMT2 inhibition | SHMT2 inhibition of BRISC mutant [7]: reduced BRISC inhibition by SHMT2 | Normalised V0 ([7]; SHMT2 0.00347222 nM): 1.281 and 0.8219 and 0.8866 | Normalised V0 ([7]; SHMT2 0.0347222 nM): 1.039 and 0.8402 and 0.9713 | Normalised V0 ([7]; SHMT2 0.347222 nM): 1.104 and 0.8836 and 0.9494 | Normalised V0 ([7]; SHMT2 1.04167 nM): 1.083 and 0.823 and 0.89 | Normalised V0 ([7]; SHMT2 3.125 nM): 0.9817 and 0.7218 and 0.8098 | Normalised V0 ([7]; SHMT2 6.25 nM): 1.047 and 0.8687 and 0.8472 | Normalised V0 ([7]; SHMT2 12.5 nM): 0.7117 and 0.4856 and 0.677 | Normalised V0 ([7]; SHMT2 25 nM): 0.5132 and 0.7026 and 0.4911 | Normalised V0 ([7]; SHMT2 50 nM): 0.4474 and 0.4092 and 0.7591 | SHMT2 inhibition of BRISC mutant [8]: reduced BRISC inhibition by SHMT2 | Normalised V0 ([8]; SHMT2 0.00347222 nM): 1.237 and 1.127 and 0.9914 | Normalised V0 ([8]; SHMT2 0.0347222 nM): 1.202 and 1.0039 and 1.016 | Normalised V0 ([8]; SHMT2 0.347222 nM): 1.306 and 1.037 and 1.029 | Normalised V0 ([8]; SHMT2 1.04167 nM): 1.133 and 0.9683 and 1.009 | Normalised V0 ([8]; SHMT2 3.125 nM): 1.059 and 0.8824 and 0.9607 | Normalised V0 ([8]; SHMT2 6.25 nM): 1.076 and 0.9844 and 0.926 | Normalised V0 ([8]; SHMT2 12.5 nM): 0.9633 and 0.8672 and 0.8727 | Normalised V0 ([8]; SHMT2 25 nM): 0.8129 and 0.833 and 0.8407 | Normalised V0 ([8]; SHMT2 50 nM): 0.7117 and 0.7254 and 0.8132 | Normalised V0 ([8]; SHMT2 100 nM): 0.5212 and 0.5553 and 0.3708 | Normalised V0 ([8]; SHMT2 200 nM): 0.4561 and 0.482 and 0.3879
